US20100287625A1, “VEGF VARIANTS” (UNIVERSITE DE LIEGE, priority 2006, published 2010)

B1: VEGF111: new VEGF isoform lacking exons 5 to 7, SEQ ID NO:2; recombinant, produced in HEK293 cells (protein, listed as Homo sapiens)
chain: MNFLLSWVHWSLALLLYLHHAKWSQAAPMAEGGGQNHHEVVKFMDVYQRSYCHPIETLVDIFQEYPDEIEYIFKPSCVPLMRCGGCCNDEGLECVPTEESNITMQIMRIKPHQGQHIGEMSFLQHNKCECRPCGPCSERRKHLFVQDPQTCKCSCKNTDSRCKARQLELNERTCRCDKPRR
B2: rbVEGF165: commercially available recombinant VEGF165 produced in bacteria (protein)
chain: APMAEGGGQNHHEVVKFMDVYQRSYCHPIETLVDIFQEYPDEIEYIFKPSCVPLMRCGGCCNDEGLECVPTEESNITMQIMRIKPHQGQHIGEMSFLQHNKCECRPKKDRARQENPCGPCSERRKHLFVQDPQTCKCSCKNTDSRCKARQLELNERTCRCDKPRR
B3: VEGF121: known VEGF isoform, recombinant, produced in HEK293 cells (protein)
chain: APMAEGGGQNHHEVVKFMDVYQRSYCHPIETLVDIFQEYPDEIEYIFKPSCVPLMRCGGCCNDEGLECVPTEESNITMQIMRIKPHQGQHIGEMSFLQHNKCECRPKKDRARQEKCDKPRR

Experiments:
[1] = system: recombinant VEGF111 produced in HEK293 cells
[2] = target: recombinant VEGF121 produced in HEK293 cells (UniProt P15692)
[3] = target: recombinant VEGF165 produced in HEK293 cells (UniProt P15692)
[4] = target: plasmin (Homo sapiens, UniProt P00747); test: Degradation of recombinant VEGF by plasmin, western blotting; type: in vitro ADME; conditions: 20 ng reVEGF, plasmin 0.04 to 0.32 units/ml, 4 hours
Sequence of plasmin (Homo sapiens, UniProt P00747) (P00747 581-810 limits assumed, species assumed): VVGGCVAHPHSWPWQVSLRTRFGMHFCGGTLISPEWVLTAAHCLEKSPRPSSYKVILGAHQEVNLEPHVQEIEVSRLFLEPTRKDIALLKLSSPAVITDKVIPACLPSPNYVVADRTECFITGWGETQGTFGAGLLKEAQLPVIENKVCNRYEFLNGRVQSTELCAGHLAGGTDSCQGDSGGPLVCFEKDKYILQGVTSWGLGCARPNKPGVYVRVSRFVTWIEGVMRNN
Sequence of plasmin (Homo sapiens, UniProt P00747) (P00747 97-580 partner limits assumed, species assumed): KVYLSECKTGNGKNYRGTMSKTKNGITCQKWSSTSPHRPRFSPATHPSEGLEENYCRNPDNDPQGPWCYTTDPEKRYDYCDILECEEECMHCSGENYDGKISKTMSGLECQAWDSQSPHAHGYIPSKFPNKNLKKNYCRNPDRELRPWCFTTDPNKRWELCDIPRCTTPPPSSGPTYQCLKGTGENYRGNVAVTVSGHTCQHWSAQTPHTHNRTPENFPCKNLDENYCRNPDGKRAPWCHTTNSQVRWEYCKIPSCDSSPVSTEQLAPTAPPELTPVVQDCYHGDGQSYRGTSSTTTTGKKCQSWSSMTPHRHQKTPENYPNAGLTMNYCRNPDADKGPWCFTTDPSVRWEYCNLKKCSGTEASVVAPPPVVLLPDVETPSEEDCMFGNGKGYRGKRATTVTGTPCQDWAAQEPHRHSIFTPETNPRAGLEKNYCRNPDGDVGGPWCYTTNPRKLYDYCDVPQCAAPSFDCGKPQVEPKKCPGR
Experimental: (§1) Recombinant VEGF165, VEGF121 or VEGF111 were produced in HEK293 cells. […] The figure depicts the percentage of degradation of each VEGF by comparison with untreated samples.
To facilitate the analysis of the electrophoretic patterns they were further treated with PNGase as described above and the products of the reactions were analysed by western blotting. […] FIG. 6A depicts the percentage of degradation of each VEGF by comparison with untreated samples.

[5] = Degradation of recombinant VEGF by chronic wound fluid, western blotting; type: in vitro ADME; conditions: for susceptibility to proteolytic degradation by plasmin and fluids from chronic ulcers: summary statement
Experimental: (§2) FIG. 7: VEGF111 is resistant to degradation by fluids collected from chronic wound. A: Conditioned media containing 20 ng of recombinant VEGF as produced above were treated with chronic wound fluid collected in one patient (20 μl at 37° C.) for indicated times and analysed by western blotting using anti-VEGF antibodies. B: HUVEC were treated with recombinant VEGF111, VEGF121 or VEGF165 produced in HEK293 cells, or with commercially available VEGF165 or the carrier alone, untreated or treated with fluids from chronic wounds (20 μl at 37° C. for 24 hours), and cell multiplication was measured by incorporation of ^3H-thymidine.
Conditioned media containing 20 ng of recombinant VEGF as produced above were treated with chronic wound fluid collected in one patient (20 μl at 37° C.) for indicated times and analysed by western blotting using anti-VEGF antibodies (FIG. 7A). […] FIG. 7B depicts the effect of treatment with chronic wound fluids on the mitogenic activity of the recombinants VEGF on HUVEC.

[6] = system: HUVEC; test: Mitogenic activity on HUVEC of VEGF pre-treated with plasmin or chronic wound fluids (3H-thymidine incorporation); type: cell-based, human; conditions: summary statement, FIG. 6B, 7B
Experimental: as §1, §2
(§3) 15000 HUVEC were seeded in gelatin-coated wells of 24 multiwells dishes in the presence of FCS. After three hours, the medium was replaced by fresh medium containing or not VEGF and renewed every two days. Cells were collected at various times and the DNA was measured by fluorimetry on a SpectraMax Gemini XS apparatus (Molecular Devices, England) after labeling with bis-benzimide. In some experiments, ^3H-thymidine (1 μM, 2.5 Ci/mol, NEN, Wellesley, Mass., USA) was added to cell cultures at day two and the trichloracetic acid-precipitable radioactivity was measured after 18 hours.

[7] = system: ERK1/2; test: Activation of ERK1/2 signalling in HUVEC, western blotting; type: cell-based, human; conditions: HUVEC starved overnight, treated 5 min
Experimental: (§4) FIG. 4: VEGF111 is biologically active in vitro. A and B: VEGF111 activates VEGF-R2 (A) and ERK1/2 (B) in HUVEC. HUVEC were treated with HEK293 conditioned mediums containing VEGF111, VEGF121 or VEGF165, commercially available recombinant VEGF165 produced in bacteria (cVEGF) (20 ng/ml each) or fetal calf serum (FCS, 10%) for 5 minutes. Untreated cells (−) or cells treated with conditioned medium of control HEK293 cells (CM) served as control. Total and phosphorylated VEGF-R2 and ERK1/2 were measured by western blotting. C: VEGF111 promotes proliferation of HUVEC. HUVEC were treated with HEK293 conditioned mediums containing VEGF111(black circles), VEGF121 (open triangles) or VEGF165 (black triangles) (10 ng/ml) or conditioned medium from control HEK293 cells (open circles). The DNA was measured in triplicate wells harvested at increasing time of treatment. D: representative microphotograph of -embryoid bodies after immunofluorescent labeling of CD31 as marker of vasculature. Bar: […]. E: A number of microphotographs (of 6 embryoid bodies from 3 independent experiments for each treatment) were taken at random and analyzed by 5 investigators not aware of the treatments, and a score (from 0 to 3, where 0 indicates lack of vascular labeling, and 3 maximum labeling) was given to each sample. F: CD31 mRNA level was measured in embryoid bodies (10 samples in 3 independent experiment for each group) as described in Material and Methods. Statistical analysis was performed using the homoscedastic Student T test. *: p<0.05; **: p<0.01; ***: p<0.001
The proteins were migrated onto polyacrylamide gels and transferred onto PVDF transfer membranes (NEN, Boston, Mass.) by electroblotting. The membranes were blocked by non-fat dry milk (3% in PBS-tween buffer) and probed with first and horseradish peroxidase-conjugated secondary antibodies. Signals were detected by chemiluminescence using a ECL Western Blotting Analysis system (Amersham, Little Chalfont, England) and X-ray film exposure and quantified using a Fluor-S MultiImager (BioRad, Hercules, Calif.).
VEGF induces a number of effects in endothelial cells, including autophosphorylation of its receptors, activation of the ERK1/2 MAPkinases pathways, induction of calcium transients and increased proliferation. The in vitro effects of recombinants VEGFs on HUVEC were compared. HUVEC were starved overnight and treated for five min. with reVEGFs. […] Conditioned medium from HEK293 cells transfected with the empty vector had no effect. To further confirm the biological activity of VEGF111 the activation of ERK1/2 signalling pathways was investigated by western blotting using monoclonal phospho-specific antibodies. HUVEC were starved overnight and treated with the three reVEGF isoforms, as well as rbVEGF165, for 5 min. […]

[8] = system: HUVEC; test: Intracellular calcium transients in HUVEC (Fluo3, confocal microscopy); type: cell-based, human; conditions: conditioned medium with 10 ng VEGF, control medium about 15%
Experimental: HUVEC were plated for 18 hours in MCDB-131 medium containing 20% FCS in borosilicate culture chambers (Lab-Tek®, Nunc, Rochester N.Y.) coated with gelatin, rinsed with serum-free medium, incubated with the fluorophore Fluo3-AM (10 μM, Molecular Probes, Eugene, Oreg.) in serum-free medium for two hours and washed. The observation of the fluorescence emitted by the Fluo3-labeled cells started 5 minutes after the last washing. Microscope fields randomly selected were examined by a confocal microscope (Meridian, Akemos, Mich.). The Fluo3-loaded cells were excited by an Argon LASER at 488 nm and the emitted fluorescence recorded at 530 nm in each cell of the field by real time imaging. Image processing and data computing were performed using the Meridian software. The intensity of the emitted fluorescence was recorded every second during 4 minutes. As the overall fluorescence intensity varied from cell to cell, the level of fluorescence of each cell at the beginning of the recording was normalised to one arbitrary unit. The baseline of resting cells spontaneously oscillated by ±10% around the level of the first image acquisition. After a 20 second period of baseline recording, 10-20 μL of conditioned medium from HEK293 cells expressing or not VEGF111, VEGF121 or VEGF165 (10 ng) were added gently on the cells under microscopic examination. A 20% rise above the baseline was considered as a significant calcium rise and the cell regarded as responsive. The results were expressed as the percentage of responding cells.
The induction of calcium transients by the various reVEGFs was investigated on HUVEC by real-time fluorescent microscopy as described. As the calcium concentration in resting cells spontaneously varied by about 10% around the baseline, cells were defined as responsive when the treatments induced a peak of calcium at least 20% above the baseline. HUVEC were treated with conditioned mediums from control HEK293 cells or cells expressing VEGF111, VEGF121 and VEGF165.

[9] = system: HUVEC; test: HUVEC proliferation (DNA measurement); type: cell-based, human; conditions: 10 ng/ml, medium renewed every two days
Experimental: as §4
as §3, with “After three hours, the medium was replaced by fresh medium containing or not VEGF and renewed every two days.” left out, “hours. […]” for “hours.”

Molecule	dose of plasmin that cleaves VEGF by 50% [1]	dose of plasmin that cleaves VEGF by 50% [2]	dose of plasmin that cleaves VEGF by 50% [3]	degradation by plasmin (western blotting) [4]	susceptibility to proteolytic degradation by plasmin and fluids from chronic ulcers [5]	effect of treatment by plasmin or fluids from non-healing wounds on the activity of the VEGF [6]	phosphorylation of ERK1/2 [7]	percentage of responding cells (calcium transients, peak at least 20% above baseline) [8]	increase of proliferation rate as compared to control conditioned medium [9]	dose of plasmin that cleaves VEGF by 50% ([4]; 37° C.)	degradation by chronic wound fluid ([5]; 20 ng VEGF, 20 μl wound fluid of one patient, 37° C., after 24 hrs)
plasmin	above 0.32 U/ml for VEGF111	comprised between 0.05 and 0.07 U/ml for VEGF165 and VEGF121	comprised between 0.05 and 0.07 U/ml for VEGF165 and VEGF121	–	–	–	–	–	–	–	–
VEGF165: known VEGF isoform, recombinant, produced in HEK293 cells [reference compound]	–	–	–	progressively degraded	susceptible	reduces or suppresses	induced	70%	2.5 fold	–	–
B1	–	–	–	unaffected	–	does not affect	induced	70%	2 fold	above 0.32 U/ml	no detectable degradation
B2	–	–	–	–	–	–	induced	–	–	–	–
B3	–	–	–	progressively degraded	susceptible	reduces or suppresses	induced	70%	2 fold	–	–
